Patent US20220406376A1 (MacroGenics, published 2022)

T1: extracellular portion of cynomolgus monkey CD137 fused to a histidine-containing peptide (cynomolgus monkey, UniProt A9YYE7 24-186)
T1 construct: extracellular domain; also called cynoCD137
T1 sequence: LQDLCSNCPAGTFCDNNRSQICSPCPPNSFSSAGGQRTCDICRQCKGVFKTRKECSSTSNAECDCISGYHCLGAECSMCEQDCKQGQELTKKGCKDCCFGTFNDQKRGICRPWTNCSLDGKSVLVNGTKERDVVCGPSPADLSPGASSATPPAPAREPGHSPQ


Tests used:
[1] = target: T1, extracellular portion of cynomolgus …; assay: SPR (BIACORE); molecule captured on anti-human Fc; cynoCD137 6.25-100 nM; 1:1 Langmuir
[2] = target: T2, HER2/neu on the surface of target cells (N87, JIMT-1, MCF-7, MDA-MB231) (UniProt P04626 23-1255, limits assumed); assay: flow cytometry on MCF-7 cells, anti-hFc APC MFI
T2 construct: whole, on cells

[3] = target: T2, HER2/neu on the surface of target cells …; assay: flow cytometry on JIMT-1 cells, anti-hFc APC MFI
Protocol: (§1) CD137×TA Binding Molecules, DART-B, DART-D, DART-G and the control molecules DART-3 and DART-6 were additionally evaluated for their ability to bind to HER2/neu expressed on N87 cells (FIG. 13A) and JIMT-1 cells (FIG. 13B). For such evaluation, 100 μL of HER2/neu expressing target cells (1.0×1⁰⁶ cells/mL) and 100 μL of serially diluted (5- or 10-fold dilutions) test article (bispecific diabody) were added to each well of microtiter assay plate(s), mixed and incubated at RT for 45 min. The cells were washed with FACS Buffer and secondary antibody (anti-human-Fc region-APC) was then added to each well; mixed and incubated at RT for 30 min. Cells were washed and resuspended in 100 μL FACS Buffer and analyzed by flow cytometry (BD LSR Fortessa or FACSCanto 11) for cell event collection. Data analysis were performed via FloJo v10.

[4] = target: T3, CD137 on the surface of cells (activated human T cells; engineered CHO cells) (human, UniProt Q07011 24-255); assay: flow cytometry on activated CD8+ T cells (CD8 FITC), anti-hFc APC MFI
T3 construct: whole, on cells; also called human CD137; cell surface expressed CD137
T3 sequence (Q07011 24-255, change not shown): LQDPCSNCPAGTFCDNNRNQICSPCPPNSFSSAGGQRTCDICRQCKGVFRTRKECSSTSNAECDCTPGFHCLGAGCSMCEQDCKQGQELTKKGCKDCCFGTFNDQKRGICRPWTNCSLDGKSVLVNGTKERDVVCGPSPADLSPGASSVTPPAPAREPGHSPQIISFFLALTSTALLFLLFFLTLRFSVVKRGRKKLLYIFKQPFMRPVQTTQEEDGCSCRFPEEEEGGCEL

[5] = target: T3, CD137 on the surface of cells …; assay: flow cytometry on CD137-expressing CHO cells (CHO/137), anti-hFc APC MFI
[6] = target: T2, HER2/neu on the surface of target cells …; assay: flow cytometry on N87 cells, anti-hFc APC MFI
Protocol: as §1

[7] = target: T3, CD137 on the surface of cells …; assay: flow cytometry on CD137-expressing CHO cells (CHO/137), anti-hFc APC MFI; remark: listed apart in the source
[8] = target: T2, HER2/neu on the surface of target cells …; assay: flow cytometry on N87 cells, anti-hFc APC MFI; remark: listed apart in the source
[9] = target: T3, CD137 on the surface of cells …; assay: flow cytometry on activated CD8+ T cells (donor D53781, CD8 FITC), anti-hFc APC MFI
[10] = target: T3, CD137 on the surface of cells …; assay: flow cytometry on activated pan T cells (donor D46433, CD8 PE), anti-hFc APC MFI
[11] = target: T2, HER2/neu on the surface of target cells …; assay: flow cytometry on JIMT-1 cells, anti-hFc APC MFI; remark: listed apart in the source
[12] = target: T4, extracellular portion of human CD137 fused to a histidine-containing peptide (human, UniProt Q07011 24-186); assay: SPR (BIACORE); molecule captured on anti-human Fc; huCD137 6.25-100 nM; 1:1 Langmuir
T4 construct: extracellular domain; also called huCD137; His-tagged soluble human CD137

[13] = target: T1, extracellular portion of cynomolgus …; assay: SPR (BIACORE); molecule captured on anti-human Fc; cynoCD137 6.25-100 nM; column head ×10^-4 applied as printed
[14] = target: T3, CD137 on the surface of cells …; assay: flow cytometry on activated pan T cells gated CD8+ (donor D43867), anti-hFc APC MFI
Protocol: Three antibodies were selected for further study. For such evaluations, purified pan T-cells (see above) were stimulated with anti-CD3/CD28 beads (cells:beads=1:1) for 72 hours in the presence of IL-2 (100 U/mL). 100 μL of activated T cells (1.0×10⁶ cells/mL) and 100 μL of serially diluted (5- or 10-fold dilutions) test article (antibody or bispecific diabody) was added to each well of microtiter assay plate(s), mixed and incubated at RT for 45 min. The cells were washed with FACS Buffer and secondary antibody (anti-human-Fc region-APC) was then added to each well; mixed and incubated at RT for 30 min. Cells were then washed FACS Buffer and T cell surface marker antibodies (anti-CD4 labeled with V510, and anti-CD8 labeled with FITC) were then added to each well; mixed and incubated at RT for 30 min. Cells were washed and resuspended in 100 μL FACS Buffer and analyzed by flow cytometry (BD LSR Fortessa or FACSCanto 11) for cell event collection. Data analysis were performed via FloJo v10.

Binder	Kd [1]	kon [1]	EC50 (read off the curve) [2]	EC50 (read off the curve) [3]	EC50 (read off the curve) [4]	EC50 (read off the curve) [5]	EC50 (read off the curve) [6]	EC50 (read off the curve) [7]	EC50 (read off the curve) [8]	EC50 (read off the curve) [9]	EC50 (read off the curve) [10]	EC50 (read off the curve) [11]	Kd [12]	koff [12]	kon [12]	koff [13]	EC50 (read off the curve) [14]
DART-G (bispecific antibody, human IgG1, kappa, L234A L235A) heavy: QVQLVQSGAEVKKPGASVKVSCKASGYTFTNYGMNWVRQAPGQGLEWMGWINTNIGEPTYTEEFKGRVTMTRDTSISTAYMELSRLRSDDTAVYYCARDDGYGNRVSYWGQGTLVTVSSASTKGPSVFPLAPSSKSTSGGTAALGCLVKDYFPEPVTVSWNSGALTSGVHTFPAVLQSSGLYSLSSVVTVPSSSLGTQTYICNVNHKPSNTKVDKRVEPKSCDKTHTCPPCPAPEAAGGPSVFLFPPKPKDTLMISRTPEVTCVVVDVSHEDPEVKFNWYVDGVEVHNAKTKPREEQYNSTYRVVSVLTVLHQDWLNGKEYKCKVSNKALPAPIEKTISKAKGQPREPQVYTLPPSREEMTKNQVSLSCAVKGFYPSDIAVEWESNGQPENNYKTTPPVLDSDGSFFLVSKLTVDKSRWQQGNVFSCSVMHEALHNRYTQKSLSLSPGK light: DIQMTQSPSSLSASVGDRVTITCKASQDISNYLSWFQQKPGKAPKTLIYRANRLQSGVPSRFSGSGSGTDFTLTISSLQPEDFATYYCLQHDEFPWTFGQGTKLEIKRTVAAPSVFIFPPSDEQLKSGTASVVCLLNNFYPREAKVQWKVDNALQSGNSQESVTEQDSKDSTYSLSSTLTLSKADYEKHKVYACEVTHQGLSSPVTKSFNRGEC chain 1: QVQLVQSGAEVKKPGASVKVSCKASGYTFTNYGMNWVRQAPGQGLEWMGWINTNIGEPTYTEEFKGRVTMTRDTSISTAYMELSRLRSDDTAVYYCARDDGYGNRVSYWGQGTLVTVSSASTKGPSVFPLAPSSKSTSGGTAALGCLVKDYFPEPVTVSWNSGALTSGVHTFPAVLQSSGLYSLSSVVTVPSSSLGTQTYICNVNHKPSNTKVDKRVEPKSCDKTHTCPPCPAPEAAGGPSVFLFPPKPKDTLMISRTPEVTCVVVDVSHEDPEVKFNWYVDGVEVHNAKTKPREEQYNSTYRVVSVLTVLHQDWLNGKEYKCKVSNKALPAPIEKTISKAKGQPREPQVYTLPPSREEMTKNQVSLWCLVKGFYPSDIAVEWESNGQPENNYKTTPPVLDSDGSFFLYSKLTVDKSRWQQGNVFSCSVMHEALHNHYTQKSLSLSPGGGGSGGGSGGGDIQMTQSPSSLSASVGDRVTITCRPSQDISNYLNWYQQKPDKTVKLLIYYTSRLRSGVPSRFSGSGSGTDFTFTISSLQPEDIATYFCQQGDTLPYTFGQGTKLEIKGGGSGGGGQVQLVQSGAEVKKPGASVKVSCKASGYTFTSYWINWVKQAPGQGLEWIGNIYPSDSYTNYNQKFKDKATITADKSTSTAYMELSSLRSEDTAVYYCTRDYGSSYSFDYWGQGTTVTVSSGGCGGGEVAALEKEVAALEKEVAALEKEVAALEK chain 2: DIQMTQSPSSLSASVGDRVTITCRPSQDISNYLNWYQQKPDKTVKLLIYYTSRLRSGVPSRFSGSGSGTDFTFTISSLQPEDIATYFCQQGDTLPYTFGQGTKLEIKGGGSGGGGQVQLVQSGAEVKKPGASVKVSCKASGYTFTSYWINWVKQAPGQGLEWIGNIYPSDSYTNYNQKFKDKATITADKSTSTAYMELSSLRSEDTAVYYCTRDYGSSYSFDYWGQGTTVTVSSGGCGGGKVAALKEKVAALKEKVAALKEKVAALKE	115 nM	390000 M⁻¹ s⁻¹	~0.09 nM	~0.04 µg/mL	~0.03 µg/mL	~0.02 µg/mL	~0.1 µg/mL	~0.02 µg/mL	~0.5 nM	~0.03 µg/mL	~0.1 nM	~0.2 nM	114 nM	0.042 s⁻¹	370000 M⁻¹ s⁻¹	0.045 s⁻¹	–
hCD137 MAB-3 (1B.3) (antibody, V domains shown) VH: QVQLVQSGAEVKKPGASVKVSCKASGYTFTSYWINWVKQAPGQGLEWIGNIYPSDSYTNYNQKFKDKATITADKSTSTAYMELSSLRSEDTAVYYCTRDYGSAYSMSTWGQGTTVTVSS VL: DIQMTQSPSSLSASVGDRVTITCRPSQDISNYLNWYQQKPDKTVKLLIYYTSRLRSGVPSRFSGSGSGTDFTFTISSLQPEDIATYFCQQGDTLPYTFGQGTKLEIK	–	–	–	–	–	–	–	–	–	–	–	–	–	–	–	–	~0.007 µg/mL
